Results published in paper PMC6901335.

Target: Recombinant MFG-E8 Protein (unlabelled, bound to NL4.3-GFP VLPs) (not stated (human or mouse recombinant protein bought)) (UniProt P21956)
Assay: flow cytometry of viral-like particles; 1 × 10^4 NL4.3-GFP VLPs in 20 μl of 1% BSA/PBS or 1 × HBSS (1 mM Ca2+, 2 mM Mg2+, 1 mM Mn2+, 0.5% fatty acid free BSA) with MFG-E8 (5 μg/ml) and integrin αvβ3 (5 μg/ml) on ice for 30 min; bound proteins detected by αv and MFG-E8 antibodies

UniProt P21956, sequence (P21956 23-463): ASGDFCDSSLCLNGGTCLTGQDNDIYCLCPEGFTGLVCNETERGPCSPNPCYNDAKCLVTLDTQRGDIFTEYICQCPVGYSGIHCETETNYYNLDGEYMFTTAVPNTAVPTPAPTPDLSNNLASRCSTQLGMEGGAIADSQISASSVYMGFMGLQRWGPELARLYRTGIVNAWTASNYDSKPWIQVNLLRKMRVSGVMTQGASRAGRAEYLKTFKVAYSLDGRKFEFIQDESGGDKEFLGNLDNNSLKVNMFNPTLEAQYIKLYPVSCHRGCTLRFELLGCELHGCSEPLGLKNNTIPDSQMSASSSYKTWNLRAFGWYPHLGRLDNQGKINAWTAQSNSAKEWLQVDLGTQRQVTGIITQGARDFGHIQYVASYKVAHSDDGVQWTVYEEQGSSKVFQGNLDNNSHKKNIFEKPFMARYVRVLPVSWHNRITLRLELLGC

“Recombinant Human Integrin alpha V beta 3 Protein (from UniProt P06756 31-1048; P05106 27-718) (receptor)” showed a percent of VLPs αvβ3/MFG-E8 positive of 80%.
